Results reported in US20070104647A1.

Assays:
[1] = molecular target: transferrin receptor on 293F and HT29 cells (UniProt P02786); experiment: FACS, non-transfected 293F cells
[2] = molecular target: transferrin receptor on 293F and HT29 cells (UniProt P02786); experiment: cell-based or functional assay
[3] = molecular target: transferrin receptor on 293F and HT29 cells (UniProt P02786); experiment: FACS, Ovr115-transfected 293F cells
[4] = molecular target: Full length HA-tagged Ovr115 (Met1-Leu435) expressed on transfected LMTK or 293F cells (human) (UniProt Q9NRS4); experiment: FACS, Ovr115-HA LMTK cells
[5] = molecular target: Full length HA-tagged Ovr115 (Met1-Leu435) expressed on transfected LMTK or 293F cells (human) (UniProt Q9NRS4); experiment: FACS, Ovr115-transfected 293F cells
[6] = molecular target: Full length HA-tagged Ovr115 (Met1-Leu435) expressed on transfected LMTK or 293F cells (human) (UniProt Q9NRS4); experiment: FACS on Ovr115 transfected mouse LMTK cells, PE conjugate alone without MAb [panel A]

UniProt P02786, sequence (P02786 whole entry): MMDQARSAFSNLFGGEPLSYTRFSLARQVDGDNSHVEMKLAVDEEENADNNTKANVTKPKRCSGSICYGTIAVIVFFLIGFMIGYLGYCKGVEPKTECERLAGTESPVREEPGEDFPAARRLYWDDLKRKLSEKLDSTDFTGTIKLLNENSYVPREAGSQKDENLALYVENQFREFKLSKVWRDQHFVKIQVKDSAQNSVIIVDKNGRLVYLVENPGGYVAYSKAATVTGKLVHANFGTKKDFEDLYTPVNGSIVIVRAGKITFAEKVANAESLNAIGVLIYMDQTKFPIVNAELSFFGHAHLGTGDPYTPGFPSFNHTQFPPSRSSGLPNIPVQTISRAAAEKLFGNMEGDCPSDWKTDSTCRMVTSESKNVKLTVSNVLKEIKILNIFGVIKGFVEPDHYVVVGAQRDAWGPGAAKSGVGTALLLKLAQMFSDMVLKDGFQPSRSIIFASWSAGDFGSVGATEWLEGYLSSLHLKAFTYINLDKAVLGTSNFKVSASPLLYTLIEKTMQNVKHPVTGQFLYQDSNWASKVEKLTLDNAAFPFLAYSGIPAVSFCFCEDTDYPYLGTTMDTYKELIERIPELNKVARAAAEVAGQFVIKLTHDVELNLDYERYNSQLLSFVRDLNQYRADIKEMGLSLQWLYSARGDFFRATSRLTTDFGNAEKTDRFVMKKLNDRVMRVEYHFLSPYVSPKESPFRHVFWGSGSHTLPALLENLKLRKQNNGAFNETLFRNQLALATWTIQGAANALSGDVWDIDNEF

| % cells positive [1] [%] | MFI [1] | Percent Growth Inhibition Compared to Wells with Medium Alone; HT29; MAb (0.08 µg/mL) + MAb Zap saporin conjugate [2] [%] | Percent Growth Inhibition Compared to Wells with Medium Alone; HT29; MAb (0.4 µg/mL) + MAb Zap saporin conjugate [2] [%] | Percent Growth Inhibition Compared to Wells with Medium Alone; HT29; MAb (2 µg/mL) + MAb Zap saporin conjugate [2] [%] | % cells positive [3] [%] | MFI [3] | % cells positive [4] [%] | MFI [4] | % cells positive [5] [%] | MFI [5] | Mean of Fluorescence [6] | Substance |
| --- | --- | --- | --- | --- | --- | --- | --- | --- | --- | --- | --- | --- |
| 99.8 | 54.3 | 18 | 58 | 35 | 99.4 | 71.1 |  |  |  |  |  | 5E9C11 (antibody) |
|  |  |  |  |  |  |  | 61 | 19 |  |  |  | Anti-HA MAb (Covance) (antibody) |
|  |  |  |  |  |  |  | 0.6 | 2.15 | 1.7 | 0.567 | 0.57 | phycoerythrin (PE) conjugated donkey anti-mouse IgG Fc antibody |
